[ ]: non-standard residue; d: D form. Hyp = O=C(O)[C@@H]1C[C@@H](O)CN1
Key:
[1] = molecular target: binding site for [125I]AAP10 on intact CHO cells (AAP receptor); experiment: in situ displacement of [125I]AAP10 on intact CHO cells
[2] = molecular target: binding site for [125I]AAP10 in murine heart tissue preparations (AAP receptor) (mouse); experiment: displacement of 0.8 nM [125I]AAP10, murine heart filtrate
[3] = molecular target: binding site for [125I]AAP10 on intact CHO cells (AAP receptor); experiment: cell-based or functional assay
[4] = molecular target: binding site for [125I]AAP10 in murine heart tissue preparations (AAP receptor) (mouse); experiment: displacement of 0.8 nM [125I]AAP10, murine heart membranes

Molecule: Ac-D-Tyr(3,5-di-I)-D-Pro-D-Hyp-Gly-D-Ala-Gly-NH2 (Compound 24) (peptide)
- IC50 [1]: 65 nM

Molecule: Ac-D-Tyr-D-Pro-D-4Hyp-Gly-D-Ala-Gly-NH2 (Compound 2) (peptide)
- IC50 [2]: 3.6 nM
- Inhibition of forskoline stimulated cAMP formation in CHO cells, EC50 [3]: 6.2 nM
- IC50 [4]: 1.2 nM
- IC50 [1]: 0.5 nM

B1: H-Gly-Pro-Hyp-Gly-Ala-Gly-OH (AAP) (peptide)
peptide: H-GP[Hyp]GAG-OH
SMILES: C[C@H](NC(=O)CNC(=O)[C@@H]1C[C@@H](O)CN1C(=O)[C@@H]1CCCN1C(=O)CN)C(=O)NCC(=O)O
- IC50 [2]: 1.2 nM
- Inhibition of forskoline stimulated cAMP formation in CHO cells, EC50 [3]: 53 nM
- IC50 [1]: 0.8 nM

Molecule: H-GAG[Hyp]PY-NH2 [H-Gly-Ala-Gly-Hyp-Pro-Tyr-NH2 (AAP10)]
- IC50 [2]: 1.2 nM
- Inhibition of forskoline stimulated cAMP formation in CHO cells, EC50 [3]: 11 nM
- IC50 [1]: 130 nM

Molecule: {ASAL(mono-iodo)}-P[Hyp]GAG-NH2 [ASAL(mono-iodo)-Pro-Hyp-Gly-Ala-Gly-NH2 (Compound 32)]
- IC50 [1]: 0.5 nM
